This is an account of results in patent US20110293511A1, “SPECIFIC BINDING PROTEINS AND USES THEREOF” (priority 2009, published 2011).

The test system of experiment [1] is U87MG.wtEGFR cells. The experiment can be described thus: binding to cell lines by FACS. The arrangement: species or system human. As to the method: (§1) Briefly, cells were labelled with the relevant antibody (10 μg/ml) followed by fluorescein-conjugated goat anti-mouse IgG (1:100 dilution; Calbiochem San Diego, Calif., USA; Becton-Dickinson PharMingen, San Diego, Calif., US) as described previously (Nishikawa et al., 1994). FACS data was obtained on a Coulter Epics Elite ESP by observing a minimum of 5,000 events and analyzed using EXPO (version 2) for Windows.
(§2) Stained cells were analyzed with a FACS Calibur using Cell Quest software (Becton-Dickinson PharMingen). […] 1. Mouse IgG2a or IgG2b was used as an isotype control.
(§3) Cell lines and antibodies were prepared as described in Example 1. […] Cells (1 3 10 6) were incubated with 5 μg/ml of the appropriate antibody or an isotype-matched negative control in PBS containing 1% HSA for 30 min at 4° C. After three washes with PBS/1% HSA, cells were incubated an additional 30 min at 4° C. with FTTC-coupled goat anti-mouse antibody (1:100 dilution; Calbiochem, San Diego, Calif.). After three subsequent washes, cells were analyzed on an Epics Elite ESP (Beckman Coulter, Hialeah, Fla.) by observing a minimum of 20,000 events and analyzed using EXPO (version 2) for Windows.
A general note: A flow cytometer gives signals particle by particle.

For experiment [2], the system named is U87MG cells. The experiment is described as follows: binding to cell lines by FACS. The conditions noted are these: parental U87MG. The arrangement: species or system human. As to the method:
as §1, §2, §3

In experiment [3] the test system is DU145 xenografts. The experiment can be described thus: s.c. xenograft therapy study. To be noted: day 67; 1 mg i.p.; control 1145. The experiment is classed as in vivo, nude mice.
Experiment [4] deals with A431 xenografts. The experiment can be described thus: s.c. xenograft therapy study. Format: in vivo, nude mice. The conditions noted are these: for mean tumor volume: day 13, 1 mg injection. How it is done: (§4) Tumor cells (3×10^6) in […] of PBS were inoculated subcutaneously into both flanks of 4-6 week old female nude mice (Animal Research Centre, Western Australia, Australia). […] Treatment was continued for a total of 6 doses, 3 times per week for 2 weeks. In the established model, treatment was started when tumors had reached a mean volume of 65±6.42 mm^3 (U87MG.Δ2-7), 84±9.07 mm3 (U87MG), 73±7.5 mm^3 (U87MG.wtEGFR) or 201±19.09 mm^3 (A431 tumors). Tumor volume in mm^3 was determined using the formula […], where length was the longest axis and width the measurement at right angles to the length (Clark et al. (2000) Therapeutic efficacy of anti-Lewis (y) humanized 3S 193 radioimmunotherapy in a breast cancer model: enhanced activity when combined with Taxol chemotherapy. Clin. Cancer Res. 6, 3621-3628). Data was expressed as mean tumor volume±S.E. for each treatment group. Statistical analysis was performed at given time points using Student's t-test. Animals were euthanized when the xenografts reached an approximate volume of 1.5 cm^3 and the tumors excised for histological examination. This research project was approved by the Animal Ethics Committee of the Austin and Repatriation Medical Centre.
AG1478 (4-(3-Chloroanilino)-6,7-dimethoxyquinazoline) is a potent and selective inhibitor of the EGFR kinase versus HER2-neu and platelet-derived growth factor receptor kinase (Calbiochem Cat. No. 658552). […] The results are illustrated in FIG. 12. […] 400 μg AG1478 was administered at 0, 2, 4, 7, 9, and 11 days post xenograft.
With respect to “(iv),” different groups of mice received either 0.5 mg/injection of each mAb, or 0.25 mg/injection of each mAb.
Finally, the fourth group of mice, which had been inoculated with A431 cells, received injections as in groups I and III, at 8, 10, 12 and 14 days after inoculation. At the start, the average tumor size was 71 mm^3.
To establish xenografts, mice were injected subcutaneously into the right and left inguinal mammary line with 1×10^6 A431 adenocarcinoma cells or 1×10^6 U87MG.de2-7 glioma cells in 100 μl of PBS. Tumor volume (TV) was calculated by the formula […] where length was the longest axis and width the measurement at right angles to length. […] Therapy was administered on days 6, 8, 11, 13, 15 and 18 for A431, and days 4, 6, 8, 11, 13 and 15 for the U87MG.de2-7 cell lines respectively. Mean±SEM tumor volumes until termination of the experiments due to ethical considerations of tumor burden are presented in FIG. 91 for the A431 xenograft until day 25, and in FIG. 92 for U87MG.de2-7 xenografts until day 31.

In experiment [5] the test system is DU145 cells. The experiment is described as follows: FACS analysis. The experiment is classed as binding, human. The text has this: Clearly, mAb806 and mAb175 can recognize only a small proportion of the EGFR on cells in the presence of an autocrine stimulation loop.
The test system of experiment [6] is U87MG brain xenografts. The experiment is described as follows: intracranial glioma xenograft treatment. To be noted: i.p. day 0 through 14. Format: in vivo, nude mice.
Experiment [7] addresses T1, deglycosylated sEGFR (Homo sapiens, UniProt P00533).
T1 construct: sEGFR is the recombinant extracellular domain (amino acids 1-621) of the wild-type EGFR); host or cells: CHO cells
The experiment can be described thus: immunoblot of PNGase F treated sEGFR. The experiment is classed as binding. As to the method:
To determine if carbohydrate structures are directly involved in the mAb806 epitope, the recombinant sEGFR expressed in CHO cells was treated with PNGase F to remove N-linked glycosylation.

For experiment [8], the target named is T2, wtEGFR on A431 cells (Homo sapiens, UniProt P00533).
T2 construct: endogenous in cells; host or cells: A431 human squamous carcinoma cells
The experiment is described as follows: Scatchard analysis on A431 cells. The experiment is classed as binding.

Experiment [9] concerns Ba/F3 cells expressing the wtEGFR. The experiment can be described thus: MTT proliferation assay with EGF. The conditions noted are these: antibody 10 μg/ml. Format: cell-based, murine. As to the method: Cells growing in log phase were harvested and washed twice with PBS to remove residual IL-3. […] Proliferation was determined using the MTT assay (van de Loosdrecht et al. (1994) J. Immunol. Methods. 174, 311-320).
A general note: Tetrazolium assays rely on reduction of a dye to a coloured formazan, in cell work by metabolically active cells.

The subject of experiment [10] is U87MG.wtEGFR brain xenografts. The experiment is described as follows: intracranial glioma xenograft treatment. The experiment is classed as in vivo, nude mice. To be noted: i.p. day 0 through 14.
Experiment [11] relates to A431 cells. The experiment is described as follows: binding to cell lines by FACS. The arrangement: species or system human.
In experiment [12] the test system is U87MG xenografts. The experiment is described as follows: s.c. xenograft therapy study. The experiment is classed as in vivo, nude mice. The conditions noted are these: 1 mg per injection. As to the method: as §4
In experiment [13] the test system is U87MG.wtEGFR xenografts. The experiment can be described thus: s.c. xenograft therapy study. Format: in vivo, nude mice. To be noted: established model; day control animals were sacrificed; 1 mg injections. How it is done:
as §4

Where “and” joins values, the source holds several entries; their conditions need not be identical. Equal entries are not always repeated. Entries after “also recorded” stand apart in the source; their conditions may differ.

B1: mAb806: murine IgG2b monoclonal antibody, clone 806, ATCC PTA-3858; VH SEQ ID NO:2, VL SEQ ID NO:4 (antibody, listed as Mus musculus, V domains shown)
VH: MRVLILLWLFTAFPGVLSDVQLQESGPSLVKPSQSLSLTCTVTGYSITSDFAWNWIRQFPGNKLEWMGYISYSGNTRYNPSLKSRISITRDTSKNQFFLQLNSVTIEDTATYYCVTAGRGFPYWGQGTLVTVSA
VL: MVSTAQFLAFLLLWFPGARCDILMTQSPSSMSVSLGDTVSITCHSSQDINSNIGWLQQRPGKSFKGLIYHGTNLDDEVPSRFSGSGSGADYSLTISSLESEDFADYYCVQYAQFPWTFGGGTKLEIKR
Regarding B1, the FACS staining entry in experiment [1] was “stained; also recorded: reacted weakly”; in experiment [2], “binding levels similar to the control antibody; also recorded: not with U87MG cells”; in experiment [11] it was “Low, but highly reproducible, binding”. Besides, the mean tumor volume is 605 mm^3 in experiment [3]; 451±65.58 mm^3 and 450±70 mm^3 in experiment [4] (established model); 260±60.33 mm^3 and 260±60 mm^3 in experiment [4] (preventative model); 468±78.38 mm^3 and 500±80 mm^3 in experiment [13]. Also, the “effect on xenograft growth” value in experiment [4] (preventative model, 0.1 mg) is listed as “significantly inhibited; also recorded: inhibited significantly”; in experiment [12] (established model), “no effect”; in [12] (preventative model) it was “no effect”. Further, the “reduction of tumor volume” value in experiment [4] (preventative model, 0.1 mg mAb806, 400 μg AG1478) is reported as “significant reduction of tumor volume”. Besides, the “binding by FACS” value in experiment [5] was “bind”. Further, in experiment [6], the effect on survival result was “did not extend survival”. Further, in experiment [7], the “binding to deglycosylated sEGFR” value is listed as “clearly bound”. Moreover, the “receptors (binding sites) per cell” value in experiment [8] (A431 cells) was 2.3×10^5. The “affinity for the wtEGFR on A431 cells” value in experiment [8] (Scatchard, average of three experiments) worked out at 9.5e+07 M⁻¹. For the same molecule, in experiment [9], the “effect on EGF-induced proliferation” value is “no effect”. Further, the median survival in experiment [10] is 23 days.
